PMC6906086

What was measured:
[1] = target: Lsr2BD WT (Mycobacterium tuberculosis H37Rv, UniProt P9WIP7 66-112); assay: fluorescence anisotropy; pH 7.5; 4 nM DNA; details: protein: recombinant; tags: 6xHis; label: 5' Alexa Fluor 488; blunt
[2] = target: Lsr2 (Mycobacterium tuberculosis H37Rv, UniProt P9WIP7 1-112); assay: EMSA; 0.95-7.6 uM Lsr2; details: protein: recombinant; (pET15-TEV, Ni-NTA); chain copies: 2; blunt

B1: AT-rich 14-mer (dsDNA)
DNA 1: CGCGCATATATGCG
DNA 2: CGCATATATGCGCG
B1 showed a Kd [1] of 210 ± 60 nM.

B2: leuS site (dsDNA)
DNA 1: AATTCGGCAAAATCGGTAAG
DNA 2: CTTACCGATTTTGCCGAATT
B2: binds [2].
